In PMC6744903:

Target: MBP-XerD (V. cholerae) (UniProt Q9KPE9)
Test: pull-down

With purified XafT peptide (natural protein) the fold XafT recovered against amylose beads alone was 3 fold.
